In patent US20210002644, “ANTI-CHYMASE APTAMER AND USE FOR SAME” (RIBOMIC INC., published 2021):

T1: chymase (native, human skin mast cell) (Homo sapiens, UniProt P23946 P23946:22-247)
T1 sequence: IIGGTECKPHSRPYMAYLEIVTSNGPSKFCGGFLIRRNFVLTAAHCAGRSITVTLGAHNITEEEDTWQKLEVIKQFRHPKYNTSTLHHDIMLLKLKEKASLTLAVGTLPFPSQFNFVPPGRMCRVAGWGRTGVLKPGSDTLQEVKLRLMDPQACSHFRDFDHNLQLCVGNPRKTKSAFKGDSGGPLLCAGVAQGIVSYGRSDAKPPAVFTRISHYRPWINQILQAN

B1: SEQ ID NO: 17(23) (ssRNA)
RNA: GAUGAUCGGACAUAACAUUGUUGGGGUGUCAA
modifications: idT-G(M)A(PHE)U(F)G(M)A(M)U(F)C(F)G(M)G(M)A(M)C(F)A(M)U(F)AAC(F)AU(F)U(F)G(M)U(F)U(F)G(M)GG(M)G(M)U(F)G(M)U(F)C(F)A(M)A(M)-idT (F=2'-F, M=2'-OMe, PHE=8-(propyl)phenyl-rA)
B2: SEQ ID NO: 17(15) (mixed)
RNA: B1 RNA
modifications: idT-G(M)A(PHE)U(F)G(M)A(M)U(F)C(F)G(M)G(M)A(M)C(F)A(M)U(F)AAC(F)A(M)TTG(M)U(F)U(F)G(M)GG(M)G(M)TG(M)TCA(M)A(M)-idT (F=2'-F, M=2'-OMe, PHE=8-(propyl)phenyl-rA)
B3: SEQ ID NO: 17(4) (mixed)
RNA: B1 RNA
modifications: idT-G(M)A(M)U(F)G(M)A(M)U(F)C(F)G(M)G(M)A(M)C(F)A(M)U(F)AAC(F)ATTG(M)U(F)U(F)G(M)GG(M)G(M)U(F)G(M)U(F)C(F)A(M)A(M)-idT (F=2'-F, M=2'-OMe)
B4: SEQ ID NO: 17(16) (mixed)
RNA: B1 RNA
modifications: idT-G(M)A(M)U(F)G(M)A(M)U(F)C(F)G(M)G(M)A(M)C(F)A(M)U(F)AAC(F)A(M)TTG(M)U(F)U(F)G(M)GG(M)G(M)TG(M)TCA(PHE)A(M)-idT (F=2'-F, M=2'-OMe, PHE=8-(propyl)phenyl-rA)
B5: SEQ ID NO: 17(9) (mixed)
RNA: B1 RNA
modifications: idT-G(M)A(M)U(F)G(M)A(M)U(F)C(F)G(M)G(M)A(M)C(F)A(M)U(F)AAC(M)A(M)TTG(M)U(F)U(F)G(M)GG(M)G(M)TG(M)TCA(M)A(M)-idT (F=2'-F, M=2'-OMe)
B6: SEQ ID NO: 17(13) (mixed)
RNA: B1 RNA
modifications: Y-S-G(M)A(M)U(F)G(M)A(M)U(F)C(F)G(M)G(M)A(M)C(F)A(M)U(F)AAC(F)A(M)TTG(M)U(F)U(F)G(M)GG(M)G(M)TG(M)TCA(M)A(M)-idT (F=2'-F, M=2'-OMe; Y=Cys-Phe peptide, S=thiol)
B7: SEQ ID NO: 17(11) (mixed)
RNA: B1 RNA
modifications: idT-G(M)A(M)U(F)G(M)A(M)U(F)C(F)G(M)G(M)A(M)C(F)A(M)U(F)AAC(F)A(M)TTG(M)U(F)U(M)G(M)GG(M)G(M)TG(M)TCA(M)A(M)-idT (F=2'-F, M=2'-OMe)
B8: SEQ ID NO: 17(7) (mixed)
RNA: B1 RNA
modifications: idT-G(M)A(M)TG(M)A(M)U(F)C(F)G(M)G(M)A(M)CA(M)U(F)AAC(F)A(M)TTG(M)U(F)U(F)G(M)GG(M)G(M)TG(M)TCA(M)A(M)-idT (F=2'-F, M=2'-OMe; printed LT(F) read as U(F))
B9: SEQ ID NO: 17(18) (mixed)
RNA: B1 RNA
modifications: idT-G(M)A(M)U(F)G(M)A(M)U(F)C(F)G(M)G(M)A(M)C(F)A(M)U(F)sAAC(F)A(M)TTG(M)U(F)U(F)G(M)GG(M)G(M)TG(M)TCA(M)A(M)-idT (F=2'-F, M=2'-OMe, s=PS)
B10: SEQ ID NO: 17(5) (mixed)
RNA: B1 RNA
modifications: idT-G(M)A(M)U(F)G(M)A(M)U(F)C(F)G(M)G(M)A(M)C(F)A(M)U(F)AAC(F)ATTG(M)U(F)U(F)G(M)GG(M)G(M)TG(M)TCA(M)A(M)-idT (F=2'-F, M=2'-OMe)
B11: SEQ ID NO: 17(6) (mixed)
RNA: B1 RNA
modifications: idT-G(M)A(M)U(F)G(M)A(M)U(F)C(F)G(M)G(M)A(M)C(F)A(M)U(F)AAC(F)A(M)TTG(M)U(F)U(F)G(M)GG(M)G(M)TG(M)TCA(M)A(M)-idT (F=2'-F, M=2'-OMe)
B12: SEQ ID NO: 17(19) (mixed)
RNA: B1 RNA
modifications: idT-G(M)A(M)U(F)G(M)A(M)U(F)C(F)G(M)G(M)A(M)C(F)A(M)U(F)AsAC(F)A(M)TTG(M)U(F)U(F)G(M)GG(M)G(M)TG(M)TCA(M)A(M)-idT (F=2'-F, M=2'-OMe, s=PS)
B13: SEQ ID NO: 17(8) (mixed)
RNA: B1 RNA
modifications: idT-G(M)A(M)U(F)G(M)A(M)U(F)C(F)G(M)G(M)A(M)C(F)A(M)U(M)AAC(F)A(M)TTG(M)U(F)U(F)G(M)GG(M)G(M)TG(M)TCA(M)A(M)-idT (F=2'-F, M=2'-OMe)
B14: SEQ ID NO: 17(17) (mixed)
RNA: B1 RNA
modifications: idT-G(M)A(M)U(F)G(M)A(M)U(F)C(F)G(M)G(M)A(M)C(F)A(M)U(F)AAC(F)A(M)TTG(M)U(F)U(F)G(M)GG(M)G(M)TG(M)TCA(M)A(PHE)-idT (F=2'-F, M=2'-OMe, PHE=8-(propyl)phenyl-rA)
B15: SEQ ID NO: 17(14) (mixed)
RNA: B1 RNA
modifications: idT-G(M)A(M)U(F)G(M)A(M)U(F)C(F)G(M)G(M)A(M)C(F)A(M)U(F)AAC(F)A(M)TTG(M)U(F)U(F)G(M)GG(M)G(M)TG(M)TCA(M)A(M)-S-Y (F=2'-F, M=2'-OMe; Y=Cys-Phe peptide, S=thiol)
B16: SEQ ID NO: 17(10) (mixed)
RNA: B1 RNA
modifications: idT-G(M)A(M)U(F)G(M)A(M)U(F)C(F)G(M)G(M)A(M)C(F)A(M)U(F)AAC(F)A(M)TTG(M)U(M)U(F)G(M)GG(M)G(M)TG(M)TCA(M)A(M)-idT (F=2'-F, M=2'-OMe)
B17: SEQ ID NO: 17(12) (mixed)
RNA: B1 RNA
modifications: X-S-G(M)A(M)U(F)G(M)A(M)U(F)C(F)G(M)G(M)A(M)C(F)A(M)U(F)AAC(F)A(M)TTG(M)U(F)U(F)G(M)GG(M)G(M)TG(M)TCA(M)A(M)-idT (F=2'-F, M=2'-OMe; X=Phe-Cys peptide, S=thiol)
B18: SEQ ID NO: 17(21) (mixed)
RNA: B1 RNA
modifications: idT-G(M)A(M)U(F)G(M)A(M)U(F)C(F)G(M)G(M)A(M)C(F)A(M)U(F)AAC(F)A(M)TTG(M)U(F)U(F)G(M)GsG(M)G(M)TG(M)TCA(M)A(M)-idT (F=2'-F, M=2'-OMe, s=PS)
B19: SEQ ID NO: 17(2) (ssRNA)
RNA: B1 RNA
modifications: idT-G(M)A(M)U(F)G(M)A(M)U(F)C(F)G(M)G(M)A(M)C(F)A(M)U(F)AAC(F)AU(F)U(F)G(M)U(F)U(F)G(M)GG(M)G(M)U(F)G(M)U(F)C(F)A(M)A(M)-idT (F=2'-F, M=2'-OMe)

Assays:
[1] = target: T1, chymase (native, human skin mast cell); experiment: inhibition; angiotensin I substrate; conditions: tags: Calbiochem Human Skin
Protocol: (§1) The total volume of solution for an enzyme reaction in the assay was set to 50 μL, and the reaction was performed in solution C buffer. At first, native (manufactured by Calbiochem) was diluted with solution C to give 5 μL thereof. Here, the native is chymase purified from human skin mast cell. The nucleic acid was serially diluted with solution C at a concentration of 0.0027-2 μM to give 25 μL thereof. The chymase solution (5 μL) and the nucleic acid solution (25 μL) were mixed, and the mixture was incubated at 37° C. for 5 min. On the other hand, […] angiotensin I (manufactured by PEPTIDE […], INC.) was prepared in solution C to give 20 μL thereof, which was incubated at 37° C. for 5 min. The angiotensin I solution was added to a mixture of chymase and nucleic acid to start an enzyme reaction. The final chymase concentration of the reaction solution was 0.5 nM, and the final substrate concentration was 50 μM. After reaction at 37° C. for 90 min, ice-cooled 30% trichloroacetic acid solution (25 μL) was added to quench the reaction. The whole mixture was centrifuged at 4° C., 14000 rpm for 10 min, and the supernatant (30 μL) was used for the next fluorescence induction reaction.
(§2) The above-mentioned supernatant (30 μL) was added to a 96 well plate (black, manufactured by Costar), a solution (15 μL) of 2% o-phthalaldehyde (manufactured by SIGMA) in methanol and 0.3M NaOH solution (170 μL) were added to each well, and the mixture was incubated at room temperature for 10 min. Then, 3M HCl solution (25 μL) was added to quench the reaction. The plate was set on a microplate reader SpectraMax190 (manufactured by Molecular device) and the fluorescence intensity was measured at an excitation wavelength of 355 nm and a fluorescence wavelength of 460 nm.
(§3) All nucleic acids of SEQ ID NO: 17(1)-17(25) were prepared by chemical synthesis. In the evaluation of SEQ ID NO: 17(1)-17(25), a method similar to the evaluation method of inhibitory activity against chymase shown in Example 1 by using angiotensin I as a substrate was used for measurement. In the Table, the IC₅₀ value is a mean of 2 or 3 measurements.

[2] = target: T1, chymase (native, human skin mast cell); experiment: inhibition; angiotensin I substrate; conditions: tags: Calbiochem Human Skin; remark: listed apart in the source
Protocol: as §1, §2
as §3, with “The” for “All”, “11-20” for “17(1)-17(25)”, “all produced” for “prepared”, “11-20,” for “17(1)-17(25),”, “[…] The” for “In the Table, the”

| Binder | IC50 [1] | IC50 [2] |
| --- | --- | --- |
| B1 | 0.16 nM |  |
| B2 | 0.13 nM |  |
| B3 | 0.2 nM |  |
| B4 | 0.18 nM |  |
| B5 | 0.16 nM |  |
| B6 | 0.16 nM |  |
| B7 | 0.14 nM |  |
| B8 | 0.17 nM |  |
| B9 | 0.15 nM |  |
| B10 | 0.17 nM |  |
| B11 | 0.14 nM |  |
| B12 | 0.19 nM |  |
| B13 | 0.13 nM |  |
| B14 | 0.19 nM |  |
| B15 | 0.19 nM |  |
| B16 | 0.13 nM |  |
| B17 | 0.19 nM |  |
| B18 | 0.19 nM |  |
| B19 | 0.21 nM |  |
| GGCAGAUGAUCGGACAUAACAUUGUUGGGGUGUCAAGCC (ssRNA, 2'-F pyrimidines (U, C); purines 2'-OH) [SEQ ID NO: 14] |  | 6.8 nM |
| GGCAGAUGAUCGGACAUAACAUUGUUGGGGUGUCAA (ssRNA, 2'-F pyrimidines (U, C); purines 2'-OH) [SEQ ID NO: 16] |  | 2 nM |
| UGAUCGGACAUAACAUUGUUGGGGUGUCAA (ssRNA, 2'-F pyrimidines (U, C); purines 2'-OH) [SEQ ID NO: 18] |  | 2.1 nM |
